Experimental data taken from patent publication US20230382979A1 (ADAPTIVE BIOTECHNOLOGIES, published 2023).

Tests used:
[1] = target: SARS-CoV-2 spike protein on live virus, strain USA-WA1/2020 (SARS-CoV-2, WA01/2020 strain, UniProt P0DTC2 14-1273); test: cell-based or functional assay
[2] = target: T1, Receptor-binding domain (RBD) of the SARS-CoV-2 spike protein, WA01/2020 strain (SARS-CoV-2, WA01/2020 strain, UniProt P0DTC2 319-541); test: SPR (Biacore 8K), antigen immobilized, antibody injected
[3] = target: T1, Receptor-binding domain (RBD) of the …; test: ELISA, antibody blocks RBD binding to human ACE2
[4] = target: T1, Receptor-binding domain (RBD) of the …; test: dose-response ELISA on coated antigen
[5] = target: SARS-CoV-2 spike protein, B1.1.7 (alpha variant), borne on lentiviral pseudovirus (SARS-CoV-2, B1.1.7); test: cell-based or functional assay

Row | Binder | Live Neut, WA1/2020 IC50 (pM) [1] | Kd [2] | IC50 [3] | EC50 [4] | Pseudo Neut, B1.1.7 IC50 (pM) [5]
1 | antibody 2606 (antibody, V domains shown) VH: EVQLVESGGGLVKPGGSLRLSCAASGFTFSSYSMNWVRQAPGKGLEWVSSITSSSGYMYYADSVKGRFTISRDNAKNSLYLQLNSLRAEDTAVYYCAKDSAFDLWEVRSYYYVMDVWGQGTTVTVSS VL: not shown | 474 pM |  |  |  | 
2 | antibody 1679 (antibody, V domains shown) VH: QITLKESGPTLVKPTQTLTLTCTFSGFSLSTVGVGVAWIRQPPGKALEWLALIYWDDDKRYSPSLKSRLTITKDTSKNHVVLTMTNMDPVDTATYYCAHHIIAALVDVWGKGTTVTVSS VL: QSALTQPASVSGSPGQSITISCTGTSSDVGGNNYVSWYQHHPGEAPKLMIYEVSNRPSGVSNRFSGSKSGNTASLTISGLQAEDEADYYCSSYTTSSTLVVFGGGSKLTVL | 19 pM | 1.01 nM | 0.07 nM | 0.003 nM | 
3 | antibody 2080 (antibody, V domains shown) VH: QVQLQQWGAGLLKPSETLSLTCAVYGGSFSGYYWSWIRQPPGKGLEWIGRINDIGSTDYNPSLKSRVTISVDTSKNQFSLKLTSVTAADTAVYYCAREPFDSEGTFDYWGQGTLVIVSS VL: DIQMTQPPSTLSASVGDRVTITCRASQSISRWLAWYRQKPGKAPKLLIYDASSLQSGVPSRFSGSGSGTEFTLTISSLQPDDLATYYCQQYNTYPYTFGQGTKLEIK | 169 pM |  |  |  | 
4 | antibody 2050 (antibody, V domains shown) VH: QVQLVQSGAEVKKPGASVKVPCKVSGYTFTDHFIHWVRQAPGQGLEWMGWISPNSGGRNYTQKFQGRVTLTRDTAITTVHMDLSSLTPDDTAVYYCARDVRWAQLQGGFDLWGQGTMVTVSS VL: QSALTQPASVSGSPGQSITISCTGTSSDVGSYNLVSWYQQHPGKAPKLMIYEVSKRPSGVSNRFSGSKSGNTASLTISGLQADDEADYYCCSYAGDNNFLFGGGTSLTVL | 36 pM | 0.115 nM | 0.727 nM | 0.025 nM | 200 pM
5 | antibody 935 (antibody, V domains shown) VH: EVQLVESGGGLVQPGGSLRLSCAASGFTVSSNYMSWVRQAPGKGLEWVSVIYSGGSTFYADSVKGRFTISRDNSRNTLYLQMNSLRAEDTAVYYCARDWGEFFFDFWGQGALVTVSS VL: EIVLTQSPGTLSLSPGERATLSCRASQTISSSYLAWYQQKPGQAPRLLISGASSRATGIPDRFSGSGSGTDFTLTISRLEPEDFAVYYCQQYGSSPRTFGQGTNVEIK | 64 pM | 0.406 nM | 0.83 nM | 0.024 nM | 1170 pM
6 | antibody 1671 (antibody, V domains shown) VH: EVQLVESGGGLVKPGGSLRLSCAASGFTFSTYNMNWVRQAPGKGLEWVSSISSNSNYIYYADSMKGRFTISRDNAKNSLYLQMNSLRAEDTAVYYCARDMDPLPYFDWLLYAFDVWGQGTMVTVSS VL: EIVLTQSPGTLSLSPGERATLSCRASQSVSGSYLAWYQQKPGQAPRLLIYGASSRATGIPDRFSGSGSGTDFTLTISRLEPEDFAVYYCQQYGSPIFTFGPGTKVDIK | 9 pM |  |  |  | 
7 | antibody 937 (antibody, V domains shown) VH: EVQLVESGGGLVQPGRSLRLSCAASGFTFDDYAMHWVRQAPGKGLEWVSGISWNSGSIGYADSVKGRFTISRDNAKNSLYLQMNSLKPEDTALYYCAKSTTSCYNGSQCPTKRPKPLESWGQGTLVIVSA VL: DIQMTQSPSTLSAFVGDRVTITCRASQSINNWLAWYQQKPGEVPKLLIYKASSLENGVPSRFSGSGFGTEFTLTISSLQPDDFAIYYCQQYYSHSHTFGQGTKLEIK | 140 pM |  |  |  | 
8 | antibody 2025 (antibody, V domains shown) VH: QVQLVQSGAEVKKPGASVKVSCKVSGYTLIELSMHWVRQAPGKGLEWMGGFDPEDVETIYAQKFQGRVTMTEDTSTDTAYMELSSLRSEDTAVYYCATAYAVQWRGMIGYWGQGTLVTVSS VL: QSALTQPASVSGSPGQSITISCTGTSSDVGSYNLVSWYQQHPGKAPKLMIYEVSKRPSGVSNRFSGSKSGNTASLTISGLQAEDEADYYCSSYAGSSTFSYVFGTGTKVTVL | 118 pM | 7.13 nM |  | 0.113 nM | 
9 | antibody 1213 (antibody, V domains shown) VH: QMQLVQSGAEVKKTGSSVKVSCEASENTFTNRYLHWVRQAPGQALEWMGWITPFQGNTHYAQKFQDRVTITRDRSMNTVYMELSSLRSEDTAIYYCASGGQYGPGSYYFEFWGQGTLVTVSS VL: EIVMTQSPATLSVSPGERATLSCRASQSIRNNLAWYRQKPGQAPRLLIYGASTRAAGVPARFSGSGSGTEFTLTISSLQSEDFAVYYCQQYINWPPLTFGGGTKVEIK | 2590 pM | 1.72 nM | 7.74 nM | 0.051 nM | 
10 | antibody 1227 (antibody, V domains shown) VH: QMQLVQSGAEVKKTGSSVKVSCEASGYTFTNRYLHWVRQAPGQALEWMGWITPFQGNTNYAQKFQDRVTITRDMSMNTVYMELSSLRSEDTAKYYCASGGQYGAGSYYLEDWGQGTLVTVSS VL: EIVMTQSPATLSVSPGERATLSCRASQSVRSNLAWYRQKPGQAPRLLIYGASTRATGVPARFSGSGSGTEFTLTISSLQSEDFAVYYCQQYINWPPLTFGGGTRVEIK | 1490 pM | 2.74 nM | 14.5 nM | 0.107 nM | 
11 | antibody 767 (antibody, V domains shown) VH: QVQVVQSGAEVKKPGASVKVSCTASGHTFTGYAIHWVRQAPGQRLEWMGLINAGGIYRTYSQRFQGRVTITRDTSASTAYMELTGLTSEDTAVYYCARANYGSGSFSDHWGQGTLVTVSS VL: not shown | 1730 pM | 24.3 nM | 20.9 nM | 3.47 nM | 
12 | antibody 2432 (antibody, V domains shown) VH: QVQLVQSGAEVKKPGSSVKVSCKASGDTFSSYAISWVRQAPGQGLEWLGGIIPIFGSADYAQKFQGRVTITADEFTSTAYMELSSLRSEDTAVYFCAREKYGDYGEGPLYNFDYWGQGTLVTVSS VL: not shown | 26 pM |  |  |  | 
13 | antibody 2075 (antibody, V domains shown) VH: QVQLVQSGAEVKKPGSSVKVSCTASGGTFSIYAFSWVRQAPGQGLEWMGGIIPISGTAGYAQKFQGRVTITADESTSTAYMELSSLRSEDTAIYYCARKYRYCSGSRCYTYFDYWGQGTLVTVSS VL: DIQMTQSPSSLSASVGDRVTITCRASQSISSFLNWYQQKPGKAPKLLIYAASSLQSGVPSRFSGSGSGTDFTLTISSLQPEDSATYYCQQSYSTITFGQGTRLEIK | 12 pM | < 0.0007 nM | 0.93 nM | 0.073 nM | ~7 pM
14 | antibody 2646 (antibody, V domains shown) VH: QVQLVQSGAEVKKPGASVKVSCKVSGYTLTELSIHWVRQAPGKGLEWMGGFDPEDAETIYAQKFQGRVTMTEDTSTDTAYMELSSLRSEDTAVYYCATATAVAGTVFNYQYHYGLDFWGQGTTVTVSS VL: not shown | 19 pM |  |  |  | 
15 | antibody 2598 (antibody, V domains shown) VH: QVQLQESGPGLVKPSGTLSLTCVVSGGSISSSNWWSWVRQPPGKGLEWIGETFHSGSFNYNPSLKSRVTISVDKSKNQFSLKLSSVTAADTAIYYCATTRVGYEGHFYYYGMDVWGQGTTVTVSS VL: DIQMTQSPSSVSASVGDRVTITCRASQGISSWLAWYQQKPGKAPKLLIYAASSLQSGVPSRFSGSGSGTDFTLTISSLQPEDFATYYCQQANRFPWTFGQGTKVEIK | 586 pM |  |  |  | 
16 | antibody 1231 (antibody, V domains shown) VH: QVQLVQSGSELKKPGASVKVSCTGYGYTFTSYAMNWVRQAPGQGLEWMGWINTNTGHPAYAQGFTGRFVFSLDSSVSTAYLQISSLKAEDTAVYYCATTIRAGGYFDFWGQGTLVTVSS VL: DIQLTQSPSFLSASVGDRVTITCRASQGISSYLAWFQQKPGKAPKLLIYVVSILQSGVPSRFSGSGSGTEFTLTISSLQPEDFATYYCQQLNSYPYTFGQGTKLEIK | 9510 pM | 2.54 nM | 3.69 nM | 0.018 nM | 
17 | antibody 2020 (antibody, V domains shown) VH: QVQLVQSGAEVKKPGASVKVSCKASGYTFTDYFMHWVRQAPGQGLEWMGWVNPLSGGTNFAQKFQGRVTMTSDTSITTVYMELSRLRSDDTAVYYCARDPPLYSSTYGMDVWGQGTTVTVSS VL: QSALTQPASVSGSPGQSITISCTGTSSDVGAYNYVSWYQQHPGKAPKLMIYDVSDRPSGVSNRFSGSKSGNTASLTISGLQAEDEADYYCSSYTISSSVVFGGGTKLTVL | 14 pM | 0.0011 nM | 1.41 nM | 0.088 nM | 13 pM
18 | antibody 941 (antibody, V domains shown) VH: QVQLVQSGAEVKKPGSSVKVSCKASGGTFSNSAINWVRQAPGQGLEWMGGIIPLFGAADYAQKFQARVTITADKSTTTSYMELSSLRSEDTAVYYCARDTLEHDDVWGNFRLSLPLSFWGQGTLVTVSS VL: not shown | 24 pM | 0.062 nM | 0.96 nM | 0.024 nM | 533 pM
19 | antibody 1439 (antibody, V domains shown) VH: QVQLQESGPGLVKPSETLSLTCTVSGDSISTYYWSWIRQPPGKGLEWIGYIHYSGSTNYNPSLKSRVAVSVDTSKNQFSLKLSSVTAADTAVYYCARGGGVFGVVINFDYWGQGILVTVSS VL: NFMLTQPYSVSESPGKTVTISCTRSSGSIASNYVQWYQQRPGSAPTTVIYEDNQRPSGVPDRFSGSIDSSSNSASLTISGLKTEDEADYYCQSRDSSNPVVFGGGTKLTVL |  | 0.0176 nM | 0.117 nM | 0.0099 nM | 
